Results published in article PMC5222566, “The Ciliopathy-Associated Cep104 Protein Interacts with Tubulin and Nek1 Kinase” (Structure(London, England:1993), 2017).

Target: tubulin (Cytoskeleton) (UniProt P02550 1-451)
Assay: SEC-MALS; TOG protein mixed with reconstituted tubulin, each ~42 uM, 1:1; 25 mM Tris-HCl pH 7.5, 100 mM NaCl, 1 mM MgCl2, 1 mM EGTA
Conditions: both partners purified

B1: human Cep104 TOG domain (Cep104^367-685), wild type (domain or fragment, UniProt O60308 367-685, looked up)
chain: DPHPKINAESLPYDERPLPAIRKHYGEAVVEPEMSNADISDARRGGMLGEPEPLTEKALREASSAIDVLGETLVAEAYCKTWSYREDALLALSKKLMEMPVGTPKEDLKNTLRASVFLVRRAIKDIVTSVFQASLKLLKMIITQYIPKHKLSKLETAHCVERTIPVLLTRTGDSSARLRVTAANFIQEMALFKEVKSLQIIPSYLVQPLKANSSVHLAMSQMGLLARLLKDLGTGSSGFTIDNVMKFSVSALEHRVYEVRETAVRIILDMYRQHQASILEYLPPDDSNTRRNILYKTIFEGFAKIDGRATDAEMRARRK
notes: The crystallised TOG construct (392-676, PDB 5LPH) has other limits; also called WT TOG; source: E. coli Rosetta, purified (Ni-NTA, PreScission cleavage, HiTrap SP); not shown: His6, N-terminal, cleaved
stoichiometry N: 1
